In article PMC2821926, “Carboxy Terminal Tail of Polycystin-1 Regulates Localization of TSC2 to Repress mTOR” (PLoS ONE, 2010):

Target: T1, GST-14-3-3β (UniProt P31946 1-246)
T1 construct: 14-3-3 beta; also called 14-3-3 proteins; source: E. coli DH5α (pGEX), batch-purified on glutathione Sepharose 4B beads
T1 sequence (looked up): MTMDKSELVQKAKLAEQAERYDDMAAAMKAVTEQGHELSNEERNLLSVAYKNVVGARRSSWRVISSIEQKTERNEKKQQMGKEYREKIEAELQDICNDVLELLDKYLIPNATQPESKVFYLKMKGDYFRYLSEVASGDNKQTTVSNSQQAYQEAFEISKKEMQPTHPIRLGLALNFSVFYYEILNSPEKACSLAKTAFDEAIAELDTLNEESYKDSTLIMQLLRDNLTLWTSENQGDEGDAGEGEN
Test: pull-down; 10 µg GST-14-3-3β on glutathione Sepharose 4B beads mixed with 300 µg protein of lysates of HEK-293 cells expressing CD44-CP1 or Flag-CP1, overnight at 4°C; washed thrice in PBS; immunoblot with anti-TSC2
Conditions: one partner purified

B1: tuberous sclerosis complex 2 (TSC2) tumor suppressor (natural protein)
chain: not shown
notes: TSC2 (tuberin), endogenous in HEK-293 cells; also called tuberin; source: endogenous, HEK-293 lysate
- fold enhanced binding in Flag-CP1 expressing cells relative to cells expressing CD44-CP1: ~2 fold
